Starred links: 1 amine or outer side, 2 acyl side, 3 side chain; linkers in the order of their positions; H or OH if unused. Non-standard residues stand in square brackets, D forms with d. Groups on a side chain read outwards from the residue. No end group written: not given here. *: point of attachment. C20 diacid = O=C(O)CCCCCCCCCCCCCCCCCCC(=O)*; C18 diacid = O=C(O)CCCCCCCCCCCCCCCCC(=O)*; γGlu = O=C(O)[C@H](CCC(=O)[*:2])N[*:1]; αMeF = C[C@](N)(Cc1ccccc1)C(=O)O; AEEA = NCCOCCOCC(=O)O; Aib = CC(C)(N)C(=O)O
Key:
human GLP-1 receptor = human GLP-1 receptor (human, UniProt P43220); assay: cell-based or functional assay
human glucagon receptor = human glucagon receptor (human, UniProt P47871); assay: cell-based or functional assay

Row | Binder | cAMP production EC50 (human GLP-1 receptor) [pM] | cAMP production EC50 (human glucagon receptor) [pM]
1 | H[Aib]QGTFTSDVSK[αMeF]LDTK([AEEA-AEEA-γGlu-C20 diacid])RAQDFVAWLEAGG-OH (N-terminus assumed; SMILES CC(C)C[C@H](NC(=O)[C@H](Cc1c[nH]c2ccccc12)NC(=O)[C@H](C)NC(=O)[C@@H](NC(=O)[C@H](Cc1ccccc1)NC(=O)[C@H](CC(=O)O)NC(=O)[C@H](CCC(N)=O)NC(=O)[C@H](C)NC(=O)[C@H](CCCNC(=N)N)NC(=O)[C@H](CCCCNC(=O)COCCOCCNC(=O)COCCOCCNC(=O)CC[C@H](NC(=O)CCCCCCCCCCCCCCCCCCC(=O)O)C(=O)O)NC(=O)[C@@H](NC(=O)[C@H](CC(=O)O)NC(=O)[C@H](CC(C)C)NC(=O)[C@](C)(Cc1ccccc1)NC(=O)[C@H](CCCCN)NC(=O)[C@H](CO)NC(=O)[C@@H](NC(=O)[C@H](CC(=O)O)NC(=O)[C@H](CO)NC(=O)[C@@H](NC(=O)[C@H](Cc1ccccc1)NC(=O)[C@@H](NC(=O)CNC(=O)[C@H](CCC(N)=O)NC(=O)C(C)(C)NC(=O)[C@@H](N)Cc1c[nH]cn1)[C@@H](C)O)[C@@H](C)O)C(C)C)[C@@H](C)O)C(C)C)C(=O)N[C@@H](CCC(=O)O)C(=O)N[C@@H](C)C(=O)NCC(=O)NCC(=O)O) [Peptide 412] | 186 | 397
2 | H[Aib]QGTFTSDVSK[αMeF]LDTK([AEEA-AEEA-γGlu-C20 diacid])RARDFVAWLL[Aib]TE-OH (N-terminus assumed; SMILES CC(C)C[C@H](NC(=O)[C@H](Cc1c[nH]c2ccccc12)NC(=O)[C@H](C)NC(=O)[C@@H](NC(=O)[C@H](Cc1ccccc1)NC(=O)[C@H](CC(=O)O)NC(=O)[C@H](CCCNC(=N)N)NC(=O)[C@H](C)NC(=O)[C@H](CCCNC(=N)N)NC(=O)[C@H](CCCCNC(=O)COCCOCCNC(=O)COCCOCCNC(=O)CC[C@H](NC(=O)CCCCCCCCCCCCCCCCCCC(=O)O)C(=O)O)NC(=O)[C@@H](NC(=O)[C@H](CC(=O)O)NC(=O)[C@H](CC(C)C)NC(=O)[C@](C)(Cc1ccccc1)NC(=O)[C@H](CCCCN)NC(=O)[C@H](CO)NC(=O)[C@@H](NC(=O)[C@H](CC(=O)O)NC(=O)[C@H](CO)NC(=O)[C@@H](NC(=O)[C@H](Cc1ccccc1)NC(=O)[C@@H](NC(=O)CNC(=O)[C@H](CCC(N)=O)NC(=O)C(C)(C)NC(=O)[C@@H](N)Cc1c[nH]cn1)[C@@H](C)O)[C@@H](C)O)C(C)C)[C@@H](C)O)C(C)C)C(=O)N[C@@H](CC(C)C)C(=O)NC(C)(C)C(=O)N[C@H](C(=O)N[C@@H](CCC(=O)O)C(=O)O)[C@@H](C)O) [Peptide 410] | 78 | 455
3 | H[Aib]QGTFTSDVSK[αMeF]LDTK([AEEA-AEEA-γGlu-C18 diacid])RAQDFVAWLEAGG-OH (N-terminus assumed; SMILES CC(C)C[C@H](NC(=O)[C@H](Cc1c[nH]c2ccccc12)NC(=O)[C@H](C)NC(=O)[C@@H](NC(=O)[C@H](Cc1ccccc1)NC(=O)[C@H](CC(=O)O)NC(=O)[C@H](CCC(N)=O)NC(=O)[C@H](C)NC(=O)[C@H](CCCNC(=N)N)NC(=O)[C@H](CCCCNC(=O)COCCOCCNC(=O)COCCOCCNC(=O)CC[C@H](NC(=O)CCCCCCCCCCCCCCCCC(=O)O)C(=O)O)NC(=O)[C@@H](NC(=O)[C@H](CC(=O)O)NC(=O)[C@H](CC(C)C)NC(=O)[C@](C)(Cc1ccccc1)NC(=O)[C@H](CCCCN)NC(=O)[C@H](CO)NC(=O)[C@@H](NC(=O)[C@H](CC(=O)O)NC(=O)[C@H](CO)NC(=O)[C@@H](NC(=O)[C@H](Cc1ccccc1)NC(=O)[C@@H](NC(=O)CNC(=O)[C@H](CCC(N)=O)NC(=O)C(C)(C)NC(=O)[C@@H](N)Cc1c[nH]cn1)[C@@H](C)O)[C@@H](C)O)C(C)C)[C@@H](C)O)C(C)C)C(=O)N[C@@H](CCC(=O)O)C(=O)N[C@@H](C)C(=O)NCC(=O)NCC(=O)O) [Peptide 411] | 98.1 | 378
